Measured values reported in PMC517823.

Assays:
FtsY (Escherichia coli) = FtsY (Escherichia coli) (UniProt P10121); conditions: cited from earlier work
Ffh [1] = molecular target: Ffh (UniProt P0AGD7); experiment: other; GTP; inhibition assay; conditions: domain or fragment
Ffh [2] = molecular target: Ffh (UniProt P0AGD7); experiment: inhibition assay

Ffh (UniProt P0AGD7), sequence (P0AGD7 whole entry, the tested form may be a part): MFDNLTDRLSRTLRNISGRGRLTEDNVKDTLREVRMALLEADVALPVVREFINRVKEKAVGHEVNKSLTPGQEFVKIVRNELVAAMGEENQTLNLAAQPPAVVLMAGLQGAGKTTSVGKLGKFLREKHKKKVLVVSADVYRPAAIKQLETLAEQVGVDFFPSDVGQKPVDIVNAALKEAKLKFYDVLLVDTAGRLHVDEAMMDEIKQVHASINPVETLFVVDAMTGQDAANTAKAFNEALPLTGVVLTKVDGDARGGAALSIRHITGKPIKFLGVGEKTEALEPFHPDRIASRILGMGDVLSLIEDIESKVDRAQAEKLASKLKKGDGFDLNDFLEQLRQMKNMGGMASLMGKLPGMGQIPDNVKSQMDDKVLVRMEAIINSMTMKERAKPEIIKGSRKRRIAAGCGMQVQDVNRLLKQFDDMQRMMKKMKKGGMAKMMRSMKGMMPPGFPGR
wild-type FtsY(47-497) (from UniProt P10121) K447(246)A, sequence (P10121 47-497, change not shown): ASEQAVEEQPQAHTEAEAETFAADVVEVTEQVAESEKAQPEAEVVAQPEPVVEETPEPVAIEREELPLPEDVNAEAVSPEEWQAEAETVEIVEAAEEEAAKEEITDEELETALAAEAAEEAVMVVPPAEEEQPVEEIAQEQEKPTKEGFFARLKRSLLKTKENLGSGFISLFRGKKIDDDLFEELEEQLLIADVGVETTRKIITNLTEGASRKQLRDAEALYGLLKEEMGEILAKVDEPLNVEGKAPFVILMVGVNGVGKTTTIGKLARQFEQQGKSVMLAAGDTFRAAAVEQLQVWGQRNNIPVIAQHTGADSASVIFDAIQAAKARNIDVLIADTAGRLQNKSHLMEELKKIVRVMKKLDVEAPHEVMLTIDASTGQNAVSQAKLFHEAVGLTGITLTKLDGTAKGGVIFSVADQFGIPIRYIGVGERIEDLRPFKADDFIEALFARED
wild-type FtsY(47-497) (from UniProt P10121) D382(187)A, sequence (P10121 47-497, change not shown): as above
wild-type FtsY(47-497) (from UniProt P10121) G454(253)W, sequence (P10121 47-497, change not shown): as above
wild-type FtsY(47-497) (from UniProt P10121) D330(135)A, sequence (P10121 47-497, change not shown): as above
FtsY Arg386(191) mutant, sequence (P10121 47-497, change not shown): as above
wild-type FtsY(47-497) (from UniProt P10121) K453(252)E, sequence (P10121 47-497, change not shown): as above
wild-type FtsY(47-497) (from UniProt P10121) T307(112)W, sequence (P10121 47-497, change not shown): as above
wild-type FtsY(47-497) (from UniProt P10121) Q339(144)A, sequence (P10121 47-497, change not shown): as above
wild-type FtsY(47-497) (from UniProt P10121) R386(191)A, sequence (P10121 47-497, change not shown): as above
wild-type FtsY(47-497) (from UniProt P10121) D479(278)A, sequence (P10121 47-497, change not shown): as above
wild-type FtsY(47-497) (from UniProt P10121) K306(111)A, sequence (P10121 47-497, change not shown): as above
wild-type FtsY(47-497) (from UniProt P10121) K312(117)A, sequence (P10121 47-497, change not shown): as above
Ffh (from UniProt P0AGD7), sequence (P0AGD7 whole entry): as the sequence (P0AGD7 whole entry, the tested form may be a part) above
FtsY (Escherichia coli), sequence (P10121 2-497): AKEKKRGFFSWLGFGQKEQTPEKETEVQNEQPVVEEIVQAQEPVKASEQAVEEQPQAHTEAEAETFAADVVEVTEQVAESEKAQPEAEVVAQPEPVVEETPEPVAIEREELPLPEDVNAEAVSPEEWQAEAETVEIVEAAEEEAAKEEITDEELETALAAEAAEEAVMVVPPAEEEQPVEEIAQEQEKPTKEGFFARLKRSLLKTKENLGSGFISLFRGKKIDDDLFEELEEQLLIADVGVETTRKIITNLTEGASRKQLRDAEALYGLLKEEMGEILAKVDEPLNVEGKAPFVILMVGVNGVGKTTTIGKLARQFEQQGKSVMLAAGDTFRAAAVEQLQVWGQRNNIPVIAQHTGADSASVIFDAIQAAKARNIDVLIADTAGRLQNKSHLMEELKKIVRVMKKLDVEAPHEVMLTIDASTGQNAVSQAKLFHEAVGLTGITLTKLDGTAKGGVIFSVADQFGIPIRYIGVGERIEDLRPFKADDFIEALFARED

| Substance | Ki (Ffh [2]) [nM] | other results |
| --- | --- | --- |
| Ffh (from UniProt P0AGD7) |  | Kd (FtsY (Escherichia coli)): 16 nM |
| FtsY Arg386(191) mutant (from UniProt P10121 47-497) |  | Ki (Ffh [1]): 120 nM |
| wild-type FtsY(47-497) (from UniProt P10121) A336(141)W | 160 |  |
| wild-type FtsY(47-497) (from UniProt P10121) D330(135)A | 2400 |  |
| wild-type FtsY(47-497) (from UniProt P10121) D382(187)A | 27000 |  |
| wild-type FtsY(47-497) (from UniProt P10121) D479(278)A | 2800 |  |
| wild-type FtsY(47-497) (from UniProt P10121) G454(253)W | 4200 |  |
| wild-type FtsY(47-497) (from UniProt P10121) K306(111)A | 3500 |  |
| wild-type FtsY(47-497) (from UniProt P10121) K312(117)A | 2400 |  |
| wild-type FtsY(47-497) (from UniProt P10121) K447(246)A | 11000 |  |
| wild-type FtsY(47-497) (from UniProt P10121) K453(252)E | 3100 |  |
| wild-type FtsY(47-497) (from UniProt P10121) N302(107)A | 110 |  |
| wild-type FtsY(47-497) (from UniProt P10121) N302(107)W | 140 |  |
| wild-type FtsY(47-497) (from UniProt P10121) Q339(144)A | 3900 |  |
| wild-type FtsY(47-497) (from UniProt P10121) R333(138)A | 240 |  |
| wild-type FtsY(47-497) (from UniProt P10121) R386(191)A | 120 |  |
| wild-type FtsY(47-497) (from UniProt P10121) T307(112)A | 7100 |  |
| wild-type FtsY(47-497) (from UniProt P10121) T307(112)W | 9900 |  |
